Data on one molecule can be found in paper PMC3713453 (Science signaling, 2013).

Common to all, as to experiment: ITC
In general terms: Isothermal titration calorimetry measures the heat released or taken up as one component is titrated into another.

Assay [1] concerns the target Gal8_(C-CRD) K246A (human, UniProt O00214-2 228-359, K246A).
The target in assay [2] is Gal8_(C-CRD) V244A (human, UniProt O00214-2 228-359, V244A).
Assay [3] addresses Gal8_(C-CRD) I312L (human, UniProt O00214-2 228-359, I312L).
Assay [4] deals with Gal8_(C-CRD) H328A (human, UniProt O00214-2 228-359, H328A).
In assay [5] the target is Gal8_(C-CRD) I312V (human, UniProt O00214-2 228-359, I312V).
Chain of Gal8_(C-CRD) I312V (O00214 186-317 I270V): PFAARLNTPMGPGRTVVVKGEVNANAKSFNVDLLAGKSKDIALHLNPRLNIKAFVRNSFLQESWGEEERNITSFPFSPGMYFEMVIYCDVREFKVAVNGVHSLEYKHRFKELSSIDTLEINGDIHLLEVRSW

Chain of Gal8_(C-CRD) K246A (O00214 186-317 K204A): as the sequence (O00214 186-317 I270V) above, with K19A, V85I counted along it
Chain of Gal8_(C-CRD) I312L (O00214 186-317 I270L): as the sequence (O00214 186-317 I270V) above, with V85L counted along it
Chain of Gal8_(C-CRD) V244A (O00214 186-317 V202A): as the sequence (O00214 186-317 I270V) above, with V17A, V85I counted along it
Chain of Gal8_(C-CRD) H328A (O00214 186-317 H286A): as the sequence (O00214 186-317 I270V) above, with V85I, H101A counted along it

For ARQNPGLAYGNPYS [NDP52_(368-381) peptide], the binding result in assay [1], in assay [2], in assay [3] and in assay [5] was “binds” in each case. The “fold reduction of affinity against wild-type Gal8_(C-CRD)” value in assay [4] was 8 fold.
